B1: Frizzled-4 (Homo sapiens), Q9ULV1 (parent)
chain: MAWRGAGPSVPGAPGGVGLSLGLLLQLLLLLGPARGFGDEEERRCDPIRISMCQNLGYNVTKMPNLVGHELQTDAELQLTTFTPLIQYGCSSQLQFFLCSVYVPMCTEKINIPIGPCGGMCLSVKRRCEPVLKEFGFAWPESLNCSKFPPQNDHNHMCMEGPGDEEVPLPHKTPIQPGEECHSVGTNSDQYIWVKRSLNCVLKCGYDAGLYSRSAKEFTDIWMAVWASLCFISTAFTVLTFLIDSSRFSYPERPIIFLSMCYNIYSIAYIVRLTVGRERISCDFEEAAEPVLIQEGLKNTGCAIIFLLMYFFGMASSIWWVILTLTWFLAAGLKWGHEAIEMHSSYFHIAAWAIPAVKTIVILIMRLVDADELTGLCYVGNQNLDALTGFVVAPLFTYLVIGTLFIAAGLVALFKIRSNLQKDGTKTDKLERLMVKIGVFSVLYTVPATCVIACYFYEISNWALFRYSADDSNMAVEMLKIFMSLLVGITSGMWIWSAKTLHTWQKCSNRLVNSGKVKREKRGNGWVKPGKGSETVV
partner: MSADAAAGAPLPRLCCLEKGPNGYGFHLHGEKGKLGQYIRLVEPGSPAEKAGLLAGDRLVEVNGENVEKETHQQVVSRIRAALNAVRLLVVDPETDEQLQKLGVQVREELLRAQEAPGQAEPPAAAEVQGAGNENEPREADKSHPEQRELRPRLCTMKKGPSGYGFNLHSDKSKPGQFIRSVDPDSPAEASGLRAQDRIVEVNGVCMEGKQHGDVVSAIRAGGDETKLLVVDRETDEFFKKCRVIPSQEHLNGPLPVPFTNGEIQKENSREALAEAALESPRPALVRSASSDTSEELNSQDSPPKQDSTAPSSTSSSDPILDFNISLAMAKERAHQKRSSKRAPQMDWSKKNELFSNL
B2: Frizzled-4 (Homo sapiens), Q9ULV1 (parent)
chain: B1 chain
partner: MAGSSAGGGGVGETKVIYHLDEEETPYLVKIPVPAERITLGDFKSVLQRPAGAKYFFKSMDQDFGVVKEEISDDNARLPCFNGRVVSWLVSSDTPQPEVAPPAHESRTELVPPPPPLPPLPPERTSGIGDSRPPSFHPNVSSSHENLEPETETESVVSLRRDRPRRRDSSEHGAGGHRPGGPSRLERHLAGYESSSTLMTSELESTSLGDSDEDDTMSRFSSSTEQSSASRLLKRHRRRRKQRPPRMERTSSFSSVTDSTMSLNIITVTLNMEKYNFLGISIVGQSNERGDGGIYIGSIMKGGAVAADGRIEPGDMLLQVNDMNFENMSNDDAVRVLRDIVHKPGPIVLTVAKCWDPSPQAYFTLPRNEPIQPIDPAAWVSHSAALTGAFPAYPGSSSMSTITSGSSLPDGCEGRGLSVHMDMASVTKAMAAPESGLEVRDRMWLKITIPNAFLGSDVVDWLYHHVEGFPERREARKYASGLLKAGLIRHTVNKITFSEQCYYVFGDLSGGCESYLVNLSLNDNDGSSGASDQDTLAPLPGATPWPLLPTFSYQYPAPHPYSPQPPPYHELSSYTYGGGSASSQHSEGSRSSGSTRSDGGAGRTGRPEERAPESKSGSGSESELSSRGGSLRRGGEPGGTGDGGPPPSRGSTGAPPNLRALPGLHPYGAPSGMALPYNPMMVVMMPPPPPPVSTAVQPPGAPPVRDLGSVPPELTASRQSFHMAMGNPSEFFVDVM

Variants of: B1
Conditions: with nhrf1_human NHERF1, O14745

Variant | effect of a mutation on the interaction
V537A | decreasing interaction

Variants of: B2
Conditions: with dvl2_mouse Dvl2, Q60838

Variant | effect of a mutation on the interaction
V537A | decreasing interaction

Reference: IntAct's records for PubMed 20802536
